Source: US11319341B2, “Immune-stimulating soluble doxorubicin-conjugated complex” (Yafei (Shanghai) Biopharmaceutical Co., Ltd., priority 2016, dated 2022)
Residues, ends and D or L forms follow the SMILES beside them. *: point of attachment. Doxorubicin(3'-N) = COc1cccc2c1C(=O)c1c(O)c3c(c(O)c1C2=O)C[C@@](O)(C(=O)CO)C[C@@H]3O[C@H]1C[C@H](N*)[C@H](O)[C@H](C)O1; Mal(CH2CH2O)6CH2CH2CO = O=C1C=CC(=O)N1CCOCCOCCOCCOCCOCCOCCC(=O)*; Hexanoyl(6-maleimido) = O=C1C=CC(=O)N1CCCCCC(=O)*; Butanoyl(4-maleimido) = O=C1C=CC(=O)N1CCCC(=O)*; Propanoyl(3-maleimido) = O=C1C=CC(=O)N1CCC(=O)*; X1 = O=C1C=CC(=O)N1CCOCCOCCOCCC(=O)*; PEG6 = NCCOCCOCCOCCOCCOCCOCCC(=O)O; PEG4 = NCCOCCOCCOCCOCCC(=O)O

Assay: Water solubility of freeze-dried compounds in water (observation and HPLC)
For COc1cccc2c1C(=O)c1c(O)c3c(c(O)c1C2=O)C[C@@](O)(C(=O)CO)C[C@@H]3O[C@H]1C[C@H](NC(=O)[C@H](CC(C)C)NC(=O)[C@H](CC(N)=O)NC(=O)[C@H](C)NC(=O)[C@H](C)NC(=O)[C@H](CCC(=O)O)NC(=O)CCOCCOCCOCCOCCOCCOCCN2C(=O)C=CC2=O)[C@H](O)[C@H](C)O1 [QHL-024] ({Mal(CH2CH2O)6CH2CH2CO}-EAANL-{Doxorubicin(3'-N)}), the solubility was > 30 mg/mL. For COc1cccc2c1C(=O)c1c(O)c3c(c(O)c1C2=O)C[C@@](O)(C(=O)CO)C[C@@H]3O[C@H]1C[C@H](NC(=O)[C@H](CC(C)C)NC(=O)[C@H](CC(N)=O)NC(=O)[C@H](C)NC(=O)[C@H](C)NC(=O)CNC(=O)CCCCCN2C(=O)C=CC2=O)[C@H](O)[C@H](C)O1 [QHL-121] ({Hexanoyl(6-maleimido)}-GAANL-{Doxorubicin(3'-N)}), the solubility was > 10 mg/mL. With COc1cccc2c1C(=O)c1c(O)c3c(c(O)c1C2=O)C[C@@](O)(C(=O)CO)C[C@@H]3O[C@H]1C[C@H](NC(=O)[C@H](CC(C)C)NC(=O)[C@H](CC(N)=O)NC(=O)[C@H](C)NC(=O)[C@H](C)NC(=O)[C@H](CC(=O)O)NC(=O)CCOCCOCCOCCOCCOCCOCCN2C(=O)C=CC2=O)[C@H](O)[C@H](C)O1 [QHL-036] ({Mal(CH2CH2O)6CH2CH2CO}-DAANL-{Doxorubicin(3'-N)}) the solubility was > 30 mg/mL. With COc1cccc2c1C(=O)c1c(O)c3c(c(O)c1C2=O)C[C@@](O)(C(=O)CO)C[C@@H]3O[C@H]1C[C@H](NC(=O)[C@H](CC(C)C)NC(=O)[C@H](CC(N)=O)NC(=O)[C@H](C)NC(=O)[C@H](C)NC(=O)[C@H](CC(=O)O)NC(=O)CCOCCOCCOCCOCCNC(=O)CCN2C(=O)C=CC2=O)[C@H](O)[C@H](C)O1 [QHL-054] ({Propanoyl(3-maleimido)-PEG4}-DAANL-{Doxorubicin(3'-N)}) the solubility was > 25 mg/mL. With COc1cccc2c1C(=O)c1c(O)c3c(c(O)c1C2=O)C[C@@](O)(C(=O)CO)C[C@@H]3O[C@H]1C[C@H](NC(=O)[C@H](CC(C)C)NC(=O)[C@H](CC(N)=O)NC(=O)[C@H](C)NC(=O)[C@H](C)NC(=O)[C@H](CC(=O)O)NC(=O)CCN2C(=O)C=CC2=O)[C@H](O)[C@H](C)O1 [QHL-114] ({Propanoyl(3-maleimido)}-DAANL-{Doxorubicin(3'-N)}) the solubility was > 15 mg/mL. In the case of COc1cccc2c1C(=O)c1c(O)c3c(c(O)c1C2=O)C[C@@](O)(C(=O)CO)C[C@@H]3O[C@H]1C[C@H](NC(=O)[C@H](CC(C)C)NC(=O)[C@H](CC(N)=O)NC(=O)[C@H](C)NC(=O)[C@H](C)NC(=O)[C@H](CC(=O)O)NC(=O)CCOCCOCCOCCOCCOCCOCCNC(=O)CCCN2C(=O)C=CC2=O)[C@H](O)[C@H](C)O1 [QHL-084] ({Butanoyl(4-maleimido)-PEG6}-DAANL-{Doxorubicin(3'-N)}), the solubility is reported as > 30 mg/mL. With COc1cccc2c1C(=O)c1c(O)c3c(c(O)c1C2=O)C[C@@](O)(C(=O)CO)C[C@@H]3O[C@H]1C[C@H](NC(=O)[C@H](CC(C)C)NC(=O)[C@H](CC(N)=O)NC(=O)[C@H](C)NC(=O)[C@H](C)NC(=O)[C@H](CCCCN)NC(=O)CCCCCN2C(=O)C=CC2=O)[C@H](O)[C@H](C)O1 [QHL-135] ({Hexanoyl(6-maleimido)}-KAANL-{Doxorubicin(3'-N)}) the solubility was > 5 mg/mL. With COc1cccc2c1C(=O)c1c(O)c3c(c(O)c1C2=O)C[C@@](O)(C(=O)CO)C[C@@H]3O[C@H]1C[C@H](NC(=O)[C@H](CC(C)C)NC(=O)[C@H](CC(N)=O)NC(=O)[C@H](C)NC(=O)[C@H](C)NC(=O)[C@H](CC(=O)O)NC(=O)CCOCCOCCOCCN2C(=O)C=CC2=O)[C@H](O)[C@H](C)O1 [QHL-034] (X1-DAANL-{Doxorubicin(3'-N)}) the solubility was > 20 mg/mL. For COc1cccc2c1C(=O)c1c(O)c3c(c(O)c1C2=O)C[C@@](O)(C(=O)CO)C[C@@H]3O[C@H]1C[C@H](NC(=O)[C@H](CC(C)C)NC(=O)[C@H](CC(N)=O)NC(=O)[C@H](C)NC(=O)[C@H](C)NC(=O)[C@H](CCC(N)=O)NC(=O)CCCCCN2C(=O)C=CC2=O)[C@H](O)[C@H](C)O1 [QHL-134] ({Hexanoyl(6-maleimido)}-QAANL-{Doxorubicin(3'-N)}), the solubility was > 5 mg/mL.
